One substance from publication PMC4122979, “The N-terminal portion of autoinhibitory element modulates human endothelial nitric-oxide synthase activity through coordinated controls of phosphorylation at Thr^495 and Ser^1177” (Bioscience Reports, 2014) can be followed below.

For this experiment, the target named is CaM (calmodulin) (UniProt P0DP23). Kind of experiment: CaM mobility shift on non-denaturing PAGE. The note with it: reference: unmodified T495 peptide; sites T495.

As to “eNOS (endothelial nitric-oxide synthase; heNOS) CaM-binding domain (CBD), 491-510 (from UniProt P29474) pT495 peptide”, the “binding against the reference” value is on record as “weaker”.
